# Results as given in PMC5316841.
# Target: Fbxw7 (UniProt Q969H0)
# Test: anti-FLAG co-IP, HSF1 immunoblot
# Settings: reference: wild type HSF1; sites S303
substance,measurement,value
HSF1 (from UniProt Q00613) HSF1 S303A,binding against the reference,weaker
